Results: US20190233522A1, “NEW DOSAGE REGIMENS FOR ANTIBODY DRUG CONJUGATES BASED ON ANTI-AXL ANTIBODIES” (GENMAB A/S, priority 2016, published 2019)
Where a chain is given by its changes, count along the chain named. Names and notes keep the numbering of the source.

Assays:
[1] = system: PAXF1657 tumors; experiment: PAXF1657 pancreas cancer PDX model; type: in vivo, NMRI nu/nu mice
Description: Human pancreas tumor tissue was subcutaneously implanted in the left flank of 5-7 weeks old female NMRI nu/nu mice. […] At day of randomization (day 0), the 3 ADCs were dosed intravenously (i.v.) at either 4 mg/kg or 2 mg/kg, and the control group received a single dose of IgG1-b12 (4 mg/kg). Tumor volumes (mm^3) were monitored twice weekly and were calculated from caliper (PLEXX) measurements as: 0.52×(length)×(width)^2.

[2] = Pre-clinical PK studies in cynomolgus monkey; type: in vivo
Description: Data from 5 in-vivo pre-clinical studies, shown in the Table below, were provided, containing measurements of the plasma ADC level, plasma IgG level, and plasma MMAE level (only measured in study 5).
All studies appeared to show a significant drop in plasma concentrations of ADC/IgG after the 2nd dose when compared to the first dose, which corresponded with an ADA response. As this is a fully human antibody, ADA response are only very rarely expected to occur in humans. Therefore, only data after the first dose were included in the data preparation and subsequently modelled.

[3] = system: LCLC-103H xenograft tumors; experiment: Therapeutic treatment of SC LCLC-103H tumor xenografts (Example 3); type: in vivo, SCID mice; conditions: for tumor volume versus control IgG1-b12: day 30, One Way ANOVA (Dunnett's); for anti-tumor activity in established SC LCLC-103H tumors: single i.p. injection 1 mg/kg, SCID mice
Description: The in vivo efficacy of MMAE-conjugated anti-AXL antibodies was determined in established subcutaneous (SC) LCLC-103H xenograft tumors in SCID mice. 5×10^6 LCLC-103H (large cell lung carcinoma) tumor cells (obtained from Leibniz-Institut DSMZ-Deutsche Sammlung von Mikroorganismen and Zellkulturen GmbH (DSMZ)) in 200 μL PBS were injected subcutaneously in the right flank of female SCID mice. Starting 14-21 days after tumor cell inoculation, when the average tumor size was >100-200 mm^3 and distinct tumor growth was observed, a single injection with 1 mg/kg (20 μg/mouse) IgG1-AXL-vcMMAE antibodies or control (unconjugated IgG1-b12) was given intraperitoneally (100 μL/mouse). Tumor volume was determined at least two times per week. Tumor volumes (mm^3) were calculated from caliper (PLEXX) measurements as: 0.52×(length)×(width)^2.

[4] = system: A431 tumors; experiment: A431 xenograft model (high Gas6); type: in vivo; conditions: 3 mg/kg i.p., SCID mice
Description: (§1) Tumor induction was performed by subcutaneous injection of 5×10^6 A431 or LCLC-103H tumor cells (both obtained from Leibniz-Institut—Deutsche Sammlung von Mikroorganismen and Zellkulturen GmbH (DSMZ)) in 200 μL PBS in the right flank of female SCID mice. Treatment was started 14-21 days after tumor cell inoculation, when the average tumor size was >100-200 mm^3 and distinct tumor growth was observed. Mice received a single injection or a total of 4 biweekly intraperitoneal injections with IgG1-AXL-vcMMAE ADCs or control antibody (unconjugated IgG1-b12), as indicated. Tumor volume was determined at least two times per week. Tumor volumes (mm^3) were calculated from caliper (PLEXX) measurements as: 0.52×(length)×(width)^2.

[5] = system: CEXF 773 tumors; experiment: Cervix carcinoma PDX model CEXF 773; type: in vivo, NMRI nu/nu mice; conditions: for anti-tumor activity on CEXF 773 tumors: 4 mg/kg i.v. day 0 and day 7; for average tumor size versus IgG1-b12 and IgG1-b12-vcMMAE: day 28, 4 mg/kg i.v. day 0 and 7, p<0.001
Description: The anti-tumor activity of IgG1-AXL-183-vcMMAE and IgG1-AXL-726-vcMMAE was evaluated in the patient derived cervix carcinoma xenograft CEXF 773 model in NMRI nu/nu mice (Harlan, Netherlands). Experiments were performed by Oncotest (Freiburg, Germany).
Tumor fragments were obtained from xenografts in serial passage in nude mice. After removal from donor mice, tumors were cut into fragments (4-5 mm diameter) and placed in PBS (with 10% penicillin/streptomycin) until subcutaneous implantation. Mice under isofluorane anesthesia received unilateral, subcutaneous tumor implants in the flank. Tumors were allowed to grow until the tumor volume was 50-250 mm^3.
The treatment groups were: IgG1-b12, IgG1-b12-vcMMAE, IgG1-AXL-183-vcMMAE and IgG1-AXL-726-vcMMAE. The antibodies and ADCs were dosed intravenously (i.v.) at 4 mg/kg on the day of randomization (day 0) and on day 7. Tumor volumes (mm^3) were monitored twice weekly and were calculated from caliper (PLEXX) measurements as: 0.52×(length)×(width)^2.

[6] = system: LCLC-103H tumors; experiment: LCLC-103H xenograft model (low Gas6, Example 5); type: in vivo; conditions: 3 mg/kg i.p., SCID mice
Description: as §1

[7] = system: MDA-MB-231 tumors; experiment: Orthotopic MDA-MB-231 D3H2LN breast cancer xenograft model; type: in vivo, SCID mice; conditions: for anti-tumor activity on MDA-MB-231 tumors: 4 biweekly doses of 3 mg/kg; for average tumor size versus IgG1-b12 and IgG1-b12-vcMMAE: day 32, 4 biweekly doses of 3 mg/kg, P<0.001 One Way Anova
Description: The anti-tumor activity of IgG1-AXL-183-vcMMAE and IgG1-AXL-726-vcMMAE was evaluated in an orthotopic MDA-MB-231 D3H2LN xenograft model.
MDA-MB-231-luc D3H2LN Bioware cells (mammary gland adenocarcinoma; Perkin Elmer, Waltham, Mass.) were implanted in the mammary fat pad of 6-11 week old, female SCID (C.B-17/IcrPrkdc-scid/CRL) mice (Charles-River) under isofluorane anesthesia. Tumors were allowed to grow and mice were randomized when tumors reached a volume of ˜325 mm^3. […] The treatment groups were: IgG1-b12, IgG1-b12-vcMMAE, IgG1-AXL-183-vcMMAE and IgG1-AXL-726-vcMMAE. The animals received a total of 4 biweekly doses of 3 mg/kg antibody or ADC starting at the day of randomization. Tumor volumes (mm^3) were monitored twice weekly and were calculated from caliper (PLEXX) measurements as: 0.52×(length)×(width)^2.

B1: IgG1-AXL-148 (antibody, V domains shown)
VH: EVQLLESGGGLVQPGGSLRLSCAASGFTFSSYAMTWVRQAPGKGLEWVSAISISGGSTFYADSVKGRFTISRDNSKNTLYLQMNSLRAEDTAVYYCRGYSGYVYDAFDFWGQGTMVTVSS
VL: DIQMTQSPSSLSASVGDRVTITCRASQGISNWLAWYQQKPEKAPKSLIYAASSLQSGVPSRFSGSGSGTDFTLTISSLQPEDFATYYCQQYNSYPLTFGGGTKVEIK
anti-tumor activity in the PAXF1657 model ([1]; dose not given): did not result in anti-tumor activity
pharmacokinetic properties, unconjugated antibody (study 3) versus ADC (study 2) [2]: similar

B2: IgG1-AXL-726-M101L-vcMMAE: anti-AXL antibody 726-M101L (VH SEQ ID No 32, VL SEQ ID No 33) conjugated to vcMMAE (conjugate)
VH: QVQLQQWGAGLLKPSETLSLTCAIDGGSFSGYYWSWIRQPPGKGLEWIGEISHSGRTNYNPSLKSRVTISIDTSKNQFSLKLSSVAAADTAVYYCARFITLIRGAIITHFDYWGQGALVTVSS
VL: B1 VL with N31S, N92H, L96Y, G100Q, V104L
modifications: vc-MMAE conjugate; homo sapiens
tumor volume versus control IgG1-b12 ([3]; 1 mg/kg single i.p.): not significant affected
anti-tumor activity in established SC LCLC-103H tumors [3]: no or only minor tumor growth inhibition

B3: IgG1-AXL-511-vcMMAE: anti-AXL antibody 511 (VH SEQ ID No 136, VL SEQ ID No 140) conjugated to vcMMAE (conjugate)
VH: EVQLLESGGGLVQPGGSLRLSCAASGFTFSSYAMNWVRQAPGKGLEWVSGISGSGGHTYHADSVKGRFTISRDNSKNTLYLQMNSLRAEDTAVYYCAKDRYDILTGYYNLLDYWGQGTLVTVSS
VL: B1 VL with N31S, K42E, T102A
modifications: vc-MMAE conjugate; homo sapiens
tumor volume versus control IgG1-b12 ([3]; 1 mg/kg single i.p.): significant tumor growth inhibition
anti-tumor activity in established SC LCLC-103H tumors [3]: induced tumor growth inhibition

B4: IgG1-AXL-726-vcMMAE: anti-AXL antibody 726 (FN2-binder) conjugated to vcMMAE (conjugate)
VH: B2 VH with L101M
VL: B1 VL with N31S, N92H, L96Y, G100Q, V104L
anti-tumor activity on A431 tumors [4]: induced growth inhibition
anti-tumor activity on CEXF 773 tumors [5]: induced tumor regression
average tumor size versus IgG1-b12 and IgG1-b12-vcMMAE [5]: significantly smaller
anti-tumor activity in the LCLC-103H xenograft model [6]: induced tumor regression
anti-tumor activity on MDA-MB-231 tumors [7]: induced tumor regression
average tumor size versus IgG1-b12 and IgG1-b12-vcMMAE [7]: significantly smaller

B5: IgG1-AXL-733-vcMMAE: anti-AXL antibody 733 (VH SEQ ID No 34, VL SEQ ID No 35) conjugated to vcMMAE (conjugate)
VH: QVQLVESGGGVVQPGRSLRLSCAASGFSFSTYAMHWVRQAPGKGLEWVAVISYDGDNKYSADSVKGRFTISRDNSKNTLYLQMNSLRAEDTAVYYCARGRKLGIDAFDIWGQGTMVTVSS
VL: AIQLTQSPSSLSASVGDRVTITCRASQGISSALAWYQQKPGKAPKLLIYDASSLESGVPSRFSGSGSGTDFTLTISGLQPEDFATYYCQQFNSYPFTFGPGTKVDIK
modifications: vc-MMAE conjugate; homo sapiens
complete tumor reduction ([3]; 1 mg/kg single i.p.): in some mice within these groups to complete tumor reduction
tumor volume versus control IgG1-b12 ([3]; 1 mg/kg single i.p.): highly significant difference
anti-tumor activity in established SC LCLC-103H tumors [3]: induced tumor regression
anti-tumor activity on A431 tumors [4]: induced growth inhibition
growth of PAXF1657 tumors compared to the control group ([1]; 2 mg/kg i.v., day 0): significantly reduced the growth
anti-tumor activity on PAXF1657 tumors ([1]; 4 mg/kg i.v., day 0): induced tumor regression
average tumor size versus isotype control IgG1-b12 ([1]; day 14, 2 mg/kg or 4 mg/kg, p<0.001 Tukey's multiple comparison test): significantly smaller

B6: IgG1-AXL-183-N52Q-vcMMAE: anti-AXL antibody 183-N52Q (VH SEQ ID No 17, VL SEQ ID No 18) conjugated to vcMMAE (conjugate)
VH: QVQLQQWGAGLLKPSETLSLTCAVYGGSFSGYYWSWIRQPPGKGLEWIGEIQQSGSTNYNPSLKSRVTISVDTSKNQFSLKLSSVTAADTSVYYCASGNWDHFFDYWGQGTLVTVSS
VL: DIQMTQSPSSVSASVGDRVTITCRASQGISSWLAWYQHKPGKAPKLLIYATSSLQSGVTSRFSGSGSGTDFTLTISSLQPEDFATYYCQQAKSFPWTFGQGTKVEIK
modifications: vc-MMAE conjugate; homo sapiens
tumor volume versus control IgG1-b12 ([3]; 1 mg/kg single i.p.): not significant affected
anti-tumor activity in established SC LCLC-103H tumors [3]: no or only minor tumor growth inhibition

B7: IgG1-AXL-183-vcMMAE: anti-AXL antibody 183 (FN1-binder) conjugated to vcMMAE (conjugate)
VH: B6 VH with Q52N
VL: B6 VL
anti-tumor activity on A431 tumors [4]: induced growth inhibition
anti-tumor activity on CEXF 773 tumors [5]: induced tumor regression
average tumor size versus IgG1-b12 and IgG1-b12-vcMMAE [5]: significantly smaller
anti-tumor activity in the LCLC-103H xenograft model [6]: induced tumor regression
anti-tumor activity on MDA-MB-231 tumors [7]: induced tumor regression
average tumor size versus IgG1-b12 and IgG1-b12-vcMMAE [7]: significantly smaller
